Laboratory results as given in article PMC11346345 (Cell reports, 2024).

Biological target: recombinant GP38 of CCHFV Afg09-2990 (Crimean-Congo hemorrhagic fever virus, …, UniProt E5FEZ4, strain)
Assay: SPR

B1: ADI-58048 IgG (antibody, V domains shown)
VH: QLQLQESGPGLVKPSETLSLTCTVSGGSITTSHYYWGWIRQPPGKGLEWVGSMYYSGGIYYNPSLKGRVTISVDTSKNQFSLKLSSVTAADTAVYYCALADAPDDAFDIWGQGTMVTVSS
VL: DIQMTQSPSSLSAFVGDRVTITCRASQSISSYLNWYQQKPGKAPKLLIYAASTLQSGVPSRFSGSGSGTDFTLTISSLQSEDFATYYCQESYSIPFTFGPGTKVDIK
  fold reduction in binding: ~27 fold
